US20160097044A1, “Antimicrobial Enzyme Fusions Reduce Resistance and Kill Intracellular Staphylococcus aureus” (The United States of America, as Represented by the …, priority 2014, published 2016)
“Also recorded” adds a separate entry of the source.

Key:
[1] = tested on: S. aureus Newbould 305; assay: Turbidity reduction assay; assay type: cell-based; conditions: 1 μM enzyme, cells at OD600nm 1.0, FIG. 6a
Method: (§1) FIG. 6a depicts the specific activity of peptidoglycan hydrolase fusion constructs in vitro in a turbidity reduction assay with S. aureus Newbould 305 resuspended in lysis buffer to an OD600nm of 1.0 and treated with 1 μM final concentrations of each peptidoglycan hydrolase. The maximum specific activity for three experiments are represented as an average with SEM error bars. FIG. 6b depicts the bacterial burden in mice with mastitis treated with recombinant peptidoglycan hydrolases. Colony Forming Units (CFUs) from infected murine mammary glands following a single treatment with 50 μl of 25 μM peptidoglycan hydrolase (1.25 nmol). Each data point represents the average of duplicate bacterial platings. The horizontal bars represent the average CFU/mg for each group. FIG. 6c illustrates the TNFα response in mice with mastitis that were treated with peptidoglycan hydrolases. Data represents a minimum of 7 measurements in duplicate. Log TNFα was used for statistical analysis. Single asterisks indicate a significant difference from buffer control (p<0.05); double asterisks indicate a significant difference from the parental enzyme (p<0.05).
FIG. 7 depicts a turbidity reduction assay of select peptidoglycan hydrolases against S. aureus Newbould 305. Bacterial cells were resuspended in lysis buffer to an OD600nm of 1.0 and lysed with 1 μM final concentrations of each peptidoglycan hydrolase. The maximum rate of ΔOD of three experiments are represented as an average with error bars representing SEM. Double asterisks indicate significant difference from parental. Mean comparisons were performed with one way ANOVA (P=3.3×10^−5) with t test post hoc analysis with Sidák adjusted alpha (p<0.01).

[2] = tested on: intracellular S. aureus strain UAMS-1 in murine calvaria; assay: Ex vivo neonatal mouse calvaria intracellular eradication; assay type: cell-based
Method: Neonatal mouse whole calvaria were treated for 4 hours with chimeric peptidoglycan hydrolases or buffer alone, 24 hours post inoculation with GFP-expressing S. aureus. Calvaria were embedded in freeze media, sectioned, and subjected to fluorescence imaging. The image shown is a representative figure for triplicate sections of three separate calvaria. FIG. 8b depicts fluorescence intensity from these sections measured in ImageJ and defined as arbitrary fluorescence standardized to the untreated control. Error bars represent SEM of four replicate experiments. FIG. 8c depicts ex-vivo intracellular S. aureus eradication. Infected calvaria were homogenized and CFU were counted post treatment. Error bars represent SEM. FIG. 8d depicts a murine model of staphylococcal osteomyelitis. C57BL/6J mice were anesthetized and their femurs were surgically exposed. A trough was drilled through the bone cortex and the damaged bone sites were inoculated with 1×10^3 CFU S. aureus in agarose beads. After 24 hours, mice were treated (i.m. to site of infection) twice in a 24 h period with PBS or 5 mg/kg of triple fusion K-L or K-L-PTD1. The femurs were removed, homogenized, and plated to quantify the bacterial load. Bars indicate the average CFU recovered (N=6). […] Asterisks represent statistical significance as determined by one-way ANOVA followed by Tukey's posthoc test.
To examine the intracellular uptake and eradication in murine osteoblast-containing tissue samples, both ex vivo calvaria (skull cap), and in vivo femur injury models were tested. Calvaria were isolated from neonatal mice and infected with UAMS-1 strain of S. aureus (1×10^6 bacteria/calvaria) for 2 h at 37° C. in osteoblast growth medium in the absence of antibiotics. Following 3× washes with PBS, calvaria were exposed to 50 μg/ml of gentamicin for 15 min to kill extracellular bacteria and further cultured in gentamicin containing osteoblast growth media. After 24 h later, calvaria were treated with peptidoglycan hydrolases (5 μg/ml) or gentamicin only control for 2 h. Lysis buffer containing 0.05% trypsin and 0.25% Triton X-100 was used to homogenize the calvaria, the homogenates were quantitatively plated on LB agar plates, and the CFU were enumerated after 24 h. The data represents triplicate determinants of two separate experiments.
Calvaria were isolated, and infected as described above using GFP-tagged UAMS-1 strain of S. aureus. Two hours post-infection, calvaria were washed with PBS followed by a 15 minutes treatment with 50 μg/ml gentamicin to kill extracellular bacteria. 24 hours post-infection, calvaria were treated with 5 μg/ml peptidoglycan hydrolases or gentamicin only control for two hours and embedded in Tissue-Tek O.C.T compound (Sakura, Torrance, Calif.). […]

[3] = tested on: TNFα; assay: Murine model of mastitis, TNFα response; assay type: in vivo, C57BL6/SJL mice; conditions: single 1.25 nmoles intramammary infusion, after challenge
Method: as §1, with “(p<0.05). […]” for “(p<0.05).”
Statistical analysis: The variables were analyzed as two-factor mixed models with Treatment as the factor and Mouse as random Blocks. […]

[4] = bovine, in vivo; cited from earlier work
[5] = tested on: post-treatment isolates of S. aureus ALR; assay: Resistance of isolates recovered from nares of treated rats (plate lysis, MIC); assay type: cell-based
Method: The Minimum Inhibitory Concentrations (MIC) of each protein for multiple S. aureus strains was determined as previously described (Jones et al. 1985. In: Manual of Clinical Microbiology, Eds. Balows et al. American Society of Microbiology, Washington D.C., pp. 972-977) with the following modifications. Enzymes were serially diluted two fold across a 96 well plate, such that after dilution, 50 μl of the enzyme solution in 300 mM NaCl, 50 mM NaH2PO4, 30% glycerol pH 7.5, remained in each well. To each well was added 50 μl of TSB and 100 μl of S. aureus Newman in TSB (diluted to 5×10^6 cells/ml). The plates were incubated 20 h at 37° C. and read with a 96 well plate reader. MIC determination values were reported as the median of ≧4 replicates (Table 1).

K-L: both LysK lytic domains fused to the N-terminus of lysostaphin; SEQ ID NO:5, protein SEQ ID NO:6
turbidity reduction (in vitro lytic) activity [1]: slightly more effective at lysing S. aureus strain Newbould 305 than lysostaphin
live bacteria (CFU) recovered from calvaria ([2]; 5 μg/ml for 2 h, homogenized calvaria): able to reduce the number of live bacteria recovered from sectioned calvaria
elimination of GFP-labeled intracellular S. aureus (fluorescence) ([2]; 5 μg/ml, 24 hours post-infection, sectioned calvaria): able to eliminate GFP-labeled intracellular S. aureus strain UAMS-1 from murine calvaria

L: 247 amino acid mature (secreted) lysostaphin, staphylolytic bacteriocin, C-terminal His6 tag; SEQ ID NO:1 [reference compound]
reduction of TNFα concentration in the mammary tissue [3]: > 6 fold
treatments after which specific antibodies were detectable [4]: 18-21 treatments

B1: L-K: LysK lytic domains inserted between lysostaphin's M23 endopeptidase domain and SH3b cell wall binding domain; SEQ ID NO:7, protein SEQ ID NO:8 (protein)
chain: MAATHEHSAQWLNNYKKGYGYGPYPLGINGGMHYGVDFFMNIGTPVKAISSGKIVEAGWSNYGGGNQIGLIENDGVHRQWYMHLSKYNVKVGDYVKAGQIIGWSGSTGYSTAPHLHFQRMVNSFSNSTAQDPMPFLKSAGYGKAGGTVTPTPNTGLDAKTQAEINKRLDAYAKGTVDSPYRVKKATSYDPSFGVMEAGAIDADGYYHAQCQDLITDYVLWLTDNKVRTWGNAKDQIKQSYGTGFKIHENKPSTVPKKGWIAVFTSGSYEQWGHIGIVYDGGNTSTFTILEQNWNGYANKKPTKRVDNYYGLTHFIEIPVKAGTTVKKETAKKSASKTPAPKKKATLKVSKNHINYTMDKRGKKPEGMVIHNDAGRSSGQQYENSLANAGYARYANGIAHYYGSEGYVWEAIDAKNQIAWHTGDGTGANSGNFRFAGIEVCQSMSASDAQFLKNEQAVFQFTAEKFKEWGLTPNRKTVRLHMEFVPTACPHRSMVLHTGFNPVTQGRPSQAIMNKLKDYFIKQIKNYMDKGTSSSTVVKDGKTSSASLDTVTPTPNTGWKTNKYGTLYKSESASFTPNTDIITRTTGPFRSMPQSGVLKAGQTIHYDEVMKQDGHVWVGYTGNSGQRIYLPVRTWNKSTNTLGVLWGTIKLEHHHHHH
modifications: Staphylococcus simulans & Phage K
MIC of 8 post-treatment isolates ([5]; isolates from rats treated with triple fusion L-K, N=32): 7.0 ± 2.4 µg/mL
resistance of colonies recovered from nares of treated rats ([5]; plate lysis analysis, N=22 colonies): not more resistant than the parental strain; also recorded: no in vivo resistance development detected
